According to paper PMC6441080, “Coordination of capsule assembly and cell wall biosynthesis in Staphylococcus aureus” (Nature Communications, 2019):

Tested on: CC(=O)N[C@H]1[C@@H](OP(=O)(O)OP(=O)(O)OC[C@H]2O[C@@H](n3ccc(=O)[nH]c3=O)[C@H](O)[C@@H]2O)O[C@H](C)[C@H](O)[C@@H]1O
Assay: purified protein
Settings: Mg2+

“CapM (Staphylococcus aureus subsp. aureus USA300)” was tested, and the Km was 2,309 ± 311.8 µM.
